{"source": "the nanobody polyreactivity screen of Harvey et al. (2022)", "data": [{"assay": "yeast display, Sf9 membrane polyspecificity reagent, FACS + sequencing; frameworks hold sequencing errors", "in_short": "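Genes from sorted yeast were amplified by colony PCR, read by MiSeq 2 × 250 sequencing and filtered on CDR length. These cells carried a synthetic nanobody library in Saccharomyces cerevisiae BJ5465 and were sorted by FACS into low and high (top ~1%) gates on anti-HA and streptavidin fluorescence. Polyreactivity is labelled according to the gate of origin.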", "values": [{"sequence": "QVQVVESGGGLVQAGGSLRLTCAASGRTFYKNAMGWYRQAAGKERELFAAITTRGGTTFYADSVKGRFTISRDNAKNTDYLQLNSMIPEDTAVDYCAKDSYTRPRGYDFWGQGTHVTVSS", "polyreactivity (PSR sort gate)": "high polyreactivity"}, {"sequence": "QVQLVESGGGLVQAGGSLRLSCAASGFTFLKNAMGWYRQAPGKERELVAAITSSGGRTYYADSVKGRFTISRDNAKNTVYLQMNSLKPEDTAVYYCAADHTHGYVLYYNDNYWGQGTQVTVSS", "polyreactivity (PSR sort gate)": "high polyreactivity"}, {"sequence": "HVQLVESGGGLVQAGGSLRLSCAASGSTFGGNAMGWYRQAPGKERELVAAISKSGGRTFYADSVKGRFTISRDNAKNTVYLQMISLKPEDTAVYYCAAQYRGYGYWGQGTQVTVSS", "polyreactivity (PSR sort gate)": "high polyreactivity"}, {"sequence": "QVQLVESGGGLVQAGGSLRLSCAASGGIFFYNAMGWYRQAPGKERELVAAISTGGGRTYYADSVKGRFTISRDNAKNTVYLQMNSLKPEDTAVYYCAKDKQDYEYWGQGTQVTVSS", "polyreactivity (PSR sort gate)": "low polyreactivity"}, {"sequence": "QDQLVESGGGLVQAGGSLRLSCAASGSIFRYYVRGWYREAPGKERELVAAISKSGGSTYYADSVKGRFTISRDNAKNTVYLQMNSLKPEDTAVYYCAAGNTRGGDFNYWGQGTQVTVSS", "polyreactivity (PSR sort gate)": "high polyreactivity"}, {"sequence": "QVQLVESGGGLVQAGGSLRLSCAASGSTFWYNTMGWYRQAPGKERELVAAISWSGGSTYADSVKGRFTISRDNAKNTVYLQMNSLKPEDTAVYYCNADDYYRYDYWGLGTQVTVSS", "polyreactivity (PSR sort gate)": "low polyreactivity"}, {"sequence": "QVQLVESGGGLVQAGGSLRISCAASGSIFLSNMGWYRQAPGNERELVAAITIGGSTDYADSVKGRFTISRDNAKNTVYLQMNSLKPEDTAVYYCNADNPYSDGADSLGNYWGQGTQVTVSS", "polyreactivity (PSR sort gate)": "low polyreactivity"}, {"sequence": "QVQLVESGGGLVQAGGRLRLSCAASGRTLYRYAMGWYRQAPGKERELVATIRRSGGSTNYADSVKGRFTISRDNAKNTVYLQMNSLKPEDTAVYYCAAVSFKPEYYYWGQGTQVTVSS", "polyreactivity (PSR sort gate)": "high polyreactivity"}, {"sequence": "QVQLVESGGGLVQAGGSLRLSCAASGSTFFPYAMGWYRQAPGKERELVAGISSDGGTSYADSVKGRFTISRDNAKNTVYLQMNSLKPEDTAVYYCAARGLLWYYSWRYYYWGQGTQVTVSS", "polyreactivity (PSR sort gate)": "low polyreactivity"}, {"sequence": "QVQLVESGGGLVQAGGSLRLSCAASGSTFTWYAMGWYRQAPGKERELVAAISWSGDSTYYADSVKGRFTISRDNAKNTVYLQMNSLKPEDTAVYYCAAENVYGYDYWGQGTQVTVSS", "polyreactivity (PSR sort gate)": "high polyreactivity"}, {"sequence": "QVQLVESGGGLVQAGGSLRLSCAASGSTLSDNAMGWYRQAPGKERELVARISGDGSTNYADSVKGRFTISRDNAKNTVYLQMNSLKPDDTAVYYCNAGTAGIYYYGKSDYWGQGTQVTVSS", "polyreactivity (PSR sort gate)": "low polyreactivity"}, {"sequence": "QVQLLESGGGLVQAGGSLRLSCAASGRIFYRYAMGWYRKAPGKERELVPAISRTGSRTYYADSVKGRFTISRDNAKNTVYLQMNSLKPEDTAVYYCNKVSAPAEFRSRGYWGQGTQVTVSS", "polyreactivity (PSR sort gate)": "high polyreactivity"}, {"sequence": "QVQLVESGGGLVQAGGSLRLSCDASGRIFHIYAMGWYREAPGKERELVASISWSGDSTYYADSVKGRFTISRDNAKNTVYLQINSLKPEDTAVYYFAAEGEETEGYDYDYWGQGTQVTVSS", "polyreactivity (PSR sort gate)": "low polyreactivity"}, {"sequence": "QVQLVESGGGLVQAAGSLRLSCAASGSTFGYNTMGWYRQAPGKERELVAGITYSGGRTYYADSVKGRFTISRDNAKNTVYLQMNSLKPADTAVYYCAALYGRGGYRNQPKSTTGMDYWGQGTQVTVSS", "polyreactivity (PSR sort gate)": "high polyreactivity"}, {"sequence": "QVQLVESGGGLVQAGGSLRLSCAASGFIFYQYTMGWYRQAPGKERELVAAISSGGSTYYADSVKGRFTISRDNAKNTVYLQMNSLKPEDTAVYYCAAVAYGNWYRYYYWGQGTQVTVSS", "polyreactivity (PSR sort gate)": "high polyreactivity"}, {"sequence": "QVQLVESGGGLVQAGGSLRLSCAASGRIFPLYAMGWYRQAPGKERELVAAITSSGGSTYYADSVKGRFTISRDNAKNTVYLQMNSLKPEDTAVYYCAADYSVYWLDYGYWGQGTQVTVSS", "polyreactivity (PSR sort gate)": "low polyreactivity"}, {"sequence": "QVQLVETGGGLVQAGGSLRLSCAASGSNFLPNAMGWYRQAPGKERELVARISYSGGNTYYADSVKGRFTISRDNAKNTVYLQMNSLKPEDTAVYYCATSHYYNDYTGRRYYYWGQGTQVTVSS", "polyreactivity (PSR sort gate)": "high polyreactivity"}, {"sequence": "QVQLVESGGGLVQAGGSLRLSCAGSGRSFVYNAMGWYRQAPGQDRELVAAITSGGRTYYADSVKGRFTISRDNAKNTVYLQINSLKPEDTAVYDCAKRFWFNTYAAHPAGFDYWGQGTQVTVSS", "polyreactivity (PSR sort gate)": "low polyreactivity"}, {"sequence": "QVQLVESGGGLVQAGGSLRLSCAASGSTFRGYAMGWYRQAPGKEREFVAAISRRGGTTYYADSVKGRFTISRDNAKNTVYLQMNSLKPEDTAVYYCNKVYYQHYLAFDYWGQGTQVNVSS", "polyreactivity (PSR sort gate)": "high polyreactivity"}, {"sequence": "QVQLEESGGGLVQAGGSLRLSCAASGLISSPNAMGWYRQAPGKERELVAAITRRGGSTYYADSVKGRFTISRDNAMNTVYLQINSLKPEDTAVYYCAKATGRPGYDYWGQGTQVTVSS", "polyreactivity (PSR sort gate)": "high polyreactivity"}, {"sequence": "QVQLVESGGGLVQAGGSLRLSCAASGSTLYANAMGWYRQAPGKEMALVAAITRTGGNTYYADSVKGRFTISRDNAKNTVYFQMNSLKPEDTAVYYCAARNPPTDHTGYQSSVLPGRYYWGQGTQVTVSS", "polyreactivity (PSR sort gate)": "low polyreactivity"}, {"sequence": "QVQLVESGGGLFQAGGSLRLSCAASGRTFWRYAMAWYRQAPGKERELVARISWRGGSTNYADSVKGRFTISRDNAKNTVYLQMNSLKPAETAVYYFNAEVLNYLVFGYQLGYDYWGQGTQGTVSS", "polyreactivity (PSR sort gate)": "low polyreactivity"}, {"sequence": "QVQLVESRGGLVQAGGSLRLSCAASGFIFRYYAMGWYRQEPGKDSELVAAISWSGGSTYYADSVKGRFTISRDNAKNTVYLQMNSLKPEDTAVYYCAADRYAILFYAEDYWGQGTQVTVSS", "polyreactivity (PSR sort gate)": "low polyreactivity"}, {"sequence": "QVQLVESGGGLVQAGGSLRLSCAASGSIFYGYTMGWYRQEPGKERELVAAIRKSGGSTNYADSVKGRFTISRDNAKNTVYLQMNSLKPEDTAVFYCAAAYYRGRGYYWGQGTQVTESS", "polyreactivity (PSR sort gate)": "high polyreactivity"}, {"sequence": "QVQLQESGGGQVQAGGSLRLSCAASGYMSTHYFMGWYRQSPGKDREFVAGISNGSITNYADSVKGRFTISRDNARNTVYLQMNSLKPEYTAVYYGAAFEWTYVRFGYWGQGTQVTVSG", "polyreactivity (PSR sort gate)": "high polyreactivity"}, {"sequence": "QVQREESGGGLVQAGGSLRLSCPASGITFWGYVMGWYRQAPGKERELVAAISSSGGRTYYADSVKGRFTISRDNAKNTVYLQMNSMKPEDTAVYYCAARFLYANGDSVDYDYWGQGTQVTVSS", "polyreactivity (PSR sort gate)": "high polyreactivity"}, {"sequence": "QVQLVESGGGLVQAGGSLRLSCAASGRTFPHYAMGWYRQAPGKVRELVAAISSRGGSTYYADSVKGRFTISRDNVKNTVYLQMNSLKPEDTAVYYCAATVGLYRSREYGYWGQGTQVTVSS", "polyreactivity (PSR sort gate)": "low polyreactivity"}, {"sequence": "QVQLVESGGGLVQAGGSLRLSCAASGSIFIVYARGWYRPAPGRERELVATITSGGSTNYADSVKGRFTISRDNAKKTVYLQMNSLKPEDTAVYYCAKDLYYGDYYYWGLGTQVTVSS", "polyreactivity (PSR sort gate)": "low polyreactivity"}, {"sequence": "QVQLVESGGGLVQAGGSLRLSCASSGRTFLINAMGWYRQAPWKERELVATISRSGGSTYYADSVKGRFTISRDNAKITVYLQMNSLKPEDTAVYYCAALVRIGYYYWGQGTQVTVSS", "polyreactivity (PSR sort gate)": "high polyreactivity"}, {"sequence": "QDQLVESRGGLVQAGGSLRLRCAASGRIFTRYAMGWYRQAPRKERELVAAITYNGGSTYYADSVKGRFTISRDNAKNTVYLQMNSLKPEDTAVYYCNAVYMSWFGLYAGFDYWGQGTQVTVSS", "polyreactivity (PSR sort gate)": "high polyreactivity"}, {"sequence": "QVQLVESGGGLVQAGGSLRLSCAASGSILQPNAMGWYRQAPGKERELVASITFSAGRTYYADSVKVRFTISRDNAKNTVYLQMNCLKPEDTAVYYCKAASDYRSSDYDYWGQGTQVTVSS", "polyreactivity (PSR sort gate)": "low polyreactivity"}, {"sequence": "QVQLVESGGGLVQAGGSLRLSCAASGSIFGYYAMGWYRQAPGKERELVAAISGSGGSTYYADSVKGRFTMSRDNAKNTVYLQMNSLKPEDTAVYYCARVRGGYDKMYYWGQGTQVTVSS", "polyreactivity (PSR sort gate)": "high polyreactivity"}, {"sequence": "QVQLVESGGGLVQAGGSLRLSCAASGYTFSYYAMGWYRQAPGKERELVAAINYSGGRTYYADSVKGRFTISRDNAKHTVYLQMNSLKPEDSAVDYCAARGGFGMDYWGQGTQVTVSS", "polyreactivity (PSR sort gate)": "high polyreactivity"}, {"sequence": "QVQLVESGGGLVQAGGSLRLSCAASGSTFGLYAMGWYRQAPGKERELVADITWSGGSTYYADSVKGRFTISRDNAKNTVYLQMNSMKPEDTAVYYCAARYAWVYYDFDYCGQGTQVTVSS", "polyreactivity (PSR sort gate)": "low polyreactivity"}, {"sequence": "QVQLVESGGGLVQAGGSLRLSCAASGSIFFYYAMGWYRQAPGKERELVAAITSSGDSTYYADSVKGRFTISRDNAKNTVYLQMNSLKPEDTAVYYCAALYIGYTGYYYWGQGTQVSVSS", "polyreactivity (PSR sort gate)": "low polyreactivity"}, {"sequence": "QVQLVESGGGLVQAGGSLRLSCAASGSTFWNYAMGWYRQAPGKERELVASIDSSDGRTYYADSVKGRFTSSRDNAKNTVFLQMTRQKPEDTAVDYCAKDAYAVELRPYSKLSSRADGYWGHGTQVTVSS", "polyreactivity (PSR sort gate)": "low polyreactivity"}, {"sequence": "QVQLVESSGGLVQAGGSLRLSCAASGFIFPLYTMGWYRQAPAKERELVAAISVTGGSTYYADSVKGRFTISRDNAKNTVYLQMNSLKPEDTAVYYCNAYLFFLNRVCSFDYWGQGTQVTVSS", "polyreactivity (PSR sort gate)": "high polyreactivity"}, {"sequence": "QVQLVESGGGLVQAGGSLRLSCAASGFIFVRYAMGWYRPAPGKERELVAVITSGGSTYYADSVKGRFTISRDNAKNTVYLQMNSLKPEDTAVYYCAAQSKRYVRSYSWYDYWGQGTQVTVSS", "polyreactivity (PSR sort gate)": "high polyreactivity"}, {"sequence": "QVQLVESGGGLVQAGGSLRLSCAASGLILYTYAMGCYRQAPGKERELVAAINSGGRTYYADSVKGRFTISRDNAKNTVYLQMNSLKPEDTAVYYCAADYGSRVRGFNYWGQGTQVTVSS", "polyreactivity (PSR sort gate)": "low polyreactivity"}, {"sequence": "QVQLVESGGGLVQAGGSLRLSCAASGITFSYNVMGWYRQAPGKERELVAAISDGGSTYYADSVKGRFTISRDNAKNTVYLLMNSLKPEDTAVYDCAKGYPYTYSQQVIYDYYYWGQGTQVTVSS", "polyreactivity (PSR sort gate)": "low polyreactivity"}, {"sequence": "QVQLVESGGGLVQAGGSLRLSCAASGRTFDLYAMGWYRQAHGKERELVAAIRWSSGNTYYADSVKGRFTISRDNAKNTVYLQMNSLKPEDTAVYYCNDELVPFRFEYWGQGTQVTVSS", "polyreactivity (PSR sort gate)": "low polyreactivity"}, {"sequence": "QVQLVESGGGLVQAGGSLRLSCAASGIIFYPNAMGWYRQAPGKERELVAAITGSGGSTYYADSVKGRFTISRDNAKNTVYLQMNSLKPEDTAVYYCNARVYWYYPMDYWGQGTQVTVSS", "polyreactivity (PSR sort gate)": "low polyreactivity"}, {"sequence": "QVQLVESGGGLVQAGGSLRLSCAASGSIISDYALGWYRPAPGKERELVAGISSGGGTTYADSVKGRFTISRDNAKNTVYLQMNSLKPEDTAVYYCNKQDQPVGRSGYPYGYDYWGQGTQVTVSS", "polyreactivity (PSR sort gate)": "low polyreactivity"}]}]}
